This is an account of results in paper PMC3433037.

Holding throughout (assay): SEC
Test [1] addresses Δ6-ClpP (Escherichia coli).
Test [2] has as its target Δ17-ClpP (Escherichia coli).
Test [3] addresses Δ10-ClpP (Escherichia coli).
The target in test [4] is Δ14-ClpP (Escherichia coli).
Test [5] concerns the target Δ4-ClpP (Escherichia coli).

On to Δ6-ClpP (domain or fragment), for which the stoichiometry N in test [1] was 14.
Δ17-ClpP (domain or fragment) registered a stoichiometry N in test [2] of 14.
In turn, Δ10-ClpP (domain or fragment) registered a stoichiometry N in test [3] of 14.
The substance Δ14-ClpP (domain or fragment) gave a stoichiometry N in test [4] of 14.
The substance Δ4-ClpP (domain or fragment) showed a stoichiometry N in test [5] of 14.
